Laboratory results from article doi:10.1101/2023.04.15.537002, “Identification of merozoite secreted repertoire and immuno-pharmacological inhibition of a novel host-parasite interaction to block malarial infection” (bioRxiv, 2023).

T1: recombinant PfRhopH3 C-terminal fragment (PfRhopH3C; 617-865 aa) (Plasmodium falciparum, UniProt Q8I395 617-865)
T1 construct: RhopH3 (high molecular weight rhoptry protein 3) of Plasmodium falciparum, C-terminal portion, residues 617-865 (747 bp); also called rPfRhopH3C; rRhopH3C; source: recombinant, codon-optimized gene in pMTSAra, induced by L-arabinose, purified (Ni-NTA)
T1 sequence: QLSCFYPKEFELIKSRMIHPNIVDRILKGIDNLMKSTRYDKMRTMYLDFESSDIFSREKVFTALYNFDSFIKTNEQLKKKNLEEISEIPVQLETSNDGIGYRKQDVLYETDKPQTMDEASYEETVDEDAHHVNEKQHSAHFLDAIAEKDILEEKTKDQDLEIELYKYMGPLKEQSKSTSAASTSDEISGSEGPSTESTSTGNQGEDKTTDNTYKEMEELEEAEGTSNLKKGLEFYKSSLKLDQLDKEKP

B1: recombinant 14-3-3[…] Target Binding Domain (TBD; 94-246 aa) (domain or fragment, human, UniProt Q04917 94-246, looked up)
chain: ETVCNDVLSLLDKFLIKNCNDFQYESKVFYLKMKGDYYRYLAEVASGEKKNSVVEASEAAYKEAFEISKEQMQPTHPIRLGLALNFSVFYYEIQNAPEQACLLAKQAFDDAIAELDTLNEDSYKDSTLIMQLLRDNLTLWTSDQQDEEAGEGN
notes: also called 14-3-3[…] TBD; source: recombinant, PCR-amplified into pMTSAra, induced by L-arabinose, purified (Ni-NTA)
B2: recombinant human 14-3-3[…] (eta), full length (246 aa) (natural protein, UniProt Q04917 1-246, looked up)
chain: MGDREQLLQRARLAEQAERYDDMASAMKAVTELNEPLSNEDRNLLSVAYKNVVGARRSSWRVISSIEQKTMADGNEKKLEKVKAYREKIEKELETVCNDVLSLLDKFLIKNCNDFQYESKVFYLKMKGDYYRYLAEVASGEKKNSVVEASEAAYKEAFEISKEQMQPTHPIRLGLALNFSVFYYEIQNAPEQACLLAKQAFDDAIAELDTLNEDSYKDSTLIMQLLRDNLTLWTSDQQDEEAGEGN
modifications: labelled with amine-reactive dye NT-647 NHS (for MST only)
notes: human 14-3-3 protein eta, gene ID YWHAH, full length, 246 aa (738 bp); the discussion names it eta; also called 14-3-3[…] full length; r14-3-3[…]; source: recombinant, codon-optimized gene in pET-28a(+), induced by IPTG, purified (Ni-NTA)

Experiments:
[1] = biological target: T1, recombinant PfRhopH3 C-terminal …; assay: ELISA; PfRhopH3C (200 ng) coated overnight; overlaid with 14-3-3[…] TBD or full length; detected with anti-14-3-3[…] antibodies, O.D.450; settings: both partners purified
[2] = biological target: T1, recombinant PfRhopH3 C-terminal …; assay: MST; 14-3-3[…] (10 uM) labelled with NT-647 NHS, titrated with different concentrations of PfRhopH3C; settings: both partners purified

Binder	binding result [1]	Kd [2] [nM]
B1	binds	
B2		66
